Assays:
[1] = molecular target: T1, matriptase (ST14) over-expressed in HEK293T cells (human, UniProt Q9Y5Y6 1-855); assay: FACS on permeabilized HEK293T cells over-expressing ST14
T1 construct: also called matriptase-1
T1 sequence: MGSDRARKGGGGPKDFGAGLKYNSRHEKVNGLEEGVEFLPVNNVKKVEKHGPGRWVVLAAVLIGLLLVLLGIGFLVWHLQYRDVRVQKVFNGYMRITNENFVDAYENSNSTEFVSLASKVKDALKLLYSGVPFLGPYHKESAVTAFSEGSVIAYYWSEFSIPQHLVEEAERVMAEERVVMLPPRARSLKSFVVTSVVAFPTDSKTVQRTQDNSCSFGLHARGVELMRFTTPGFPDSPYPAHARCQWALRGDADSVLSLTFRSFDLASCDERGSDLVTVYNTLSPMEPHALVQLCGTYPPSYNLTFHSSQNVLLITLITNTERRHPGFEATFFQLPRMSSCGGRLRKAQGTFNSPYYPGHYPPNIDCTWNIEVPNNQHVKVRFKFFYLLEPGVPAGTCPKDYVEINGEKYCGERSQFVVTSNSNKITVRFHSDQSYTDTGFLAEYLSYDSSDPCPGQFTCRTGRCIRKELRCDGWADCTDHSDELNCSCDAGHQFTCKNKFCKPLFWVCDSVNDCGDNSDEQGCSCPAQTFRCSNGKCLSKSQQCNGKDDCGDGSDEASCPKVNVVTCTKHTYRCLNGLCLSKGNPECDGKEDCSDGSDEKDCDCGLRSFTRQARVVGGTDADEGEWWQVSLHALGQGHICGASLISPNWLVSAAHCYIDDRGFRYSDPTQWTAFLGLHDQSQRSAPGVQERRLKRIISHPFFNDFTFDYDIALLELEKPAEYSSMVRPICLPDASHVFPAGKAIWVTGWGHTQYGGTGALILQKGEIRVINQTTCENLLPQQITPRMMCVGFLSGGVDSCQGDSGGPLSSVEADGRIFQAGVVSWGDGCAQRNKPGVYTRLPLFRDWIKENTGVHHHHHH
From the text: (§1) To determine if anti-TMPRSS6 antibodies bind to homologous matriptases, HEK293T cells over-expressing matriptase (ST14) (SEQ ID NO: 100) (FIGS. 5B, 5E, 5H, 5K, 5N, 5Q), and HEK293T cells over-expressing matriptase-3 (TMPRSS7) (SEQ ID NO: 101) (FIGS. 5C, 5F, 5I, 5L, 5O, 5R) were collected (generated in house). HEK293T cells stably expressing human TMPRSS6 (matriptase-2) (SEQ ID NO:97) (generated by LakePharma Inc as described above, FIGS. 5A, 5D, 5G, 5J, 5M, 5P) were used as a positive control and HEK293T cells (FIGS. 5A-5R) were used as a negative control (as described above). Cells were blocked and permeabilized with dPBS + 3% BSA + 0.1% Tween-20 before incubation with various anti-TMPRSS6 antibodies diluted in dPBS + 3% BSA + 0.1% Tween-20. Cells were incubated with anti-TMPRSS6 antibodies and their humanized variants at a concentration of roughly 1 µg/ml for 1 hr. After incubation, cells were washed with dPBS and incubated with goat anti-mouse IgG conjugated with AlexaFluor-488 (Invitrogen, FIGS. 5A-5I) or goat anti-human IgG conjugated with Allophycocyanin (APC) (Jackson Immuno Research, FIGS. 5J-5R) as a 2° antibody. At last, cells were washed with dPBS and re-suspended with dPBS + 1 mM EDTA, and then subjected to FACS analysis using a NOVOCYTE® Flow Cytometer. Bound antibody was determined by excitation at 488 nm and measurement of emission (FITC-A) at 530 nm (FIGS. 5A-5I) or by excitation at 640 nm and measurement of emission (APC-A) at 675 nm (FIGS. 5J-5R). Results for these assays are shown in histogram plots in FIGS. 5A-5R.

[2] = molecular target: T2, matriptase-3 (TMPRSS7) over-expressed in HEK293T cells (human, UniProt Q7RTY8 1-843); assay: FACS on permeabilized HEK293T cells over-expressing TMPRSS7
T2 sequence: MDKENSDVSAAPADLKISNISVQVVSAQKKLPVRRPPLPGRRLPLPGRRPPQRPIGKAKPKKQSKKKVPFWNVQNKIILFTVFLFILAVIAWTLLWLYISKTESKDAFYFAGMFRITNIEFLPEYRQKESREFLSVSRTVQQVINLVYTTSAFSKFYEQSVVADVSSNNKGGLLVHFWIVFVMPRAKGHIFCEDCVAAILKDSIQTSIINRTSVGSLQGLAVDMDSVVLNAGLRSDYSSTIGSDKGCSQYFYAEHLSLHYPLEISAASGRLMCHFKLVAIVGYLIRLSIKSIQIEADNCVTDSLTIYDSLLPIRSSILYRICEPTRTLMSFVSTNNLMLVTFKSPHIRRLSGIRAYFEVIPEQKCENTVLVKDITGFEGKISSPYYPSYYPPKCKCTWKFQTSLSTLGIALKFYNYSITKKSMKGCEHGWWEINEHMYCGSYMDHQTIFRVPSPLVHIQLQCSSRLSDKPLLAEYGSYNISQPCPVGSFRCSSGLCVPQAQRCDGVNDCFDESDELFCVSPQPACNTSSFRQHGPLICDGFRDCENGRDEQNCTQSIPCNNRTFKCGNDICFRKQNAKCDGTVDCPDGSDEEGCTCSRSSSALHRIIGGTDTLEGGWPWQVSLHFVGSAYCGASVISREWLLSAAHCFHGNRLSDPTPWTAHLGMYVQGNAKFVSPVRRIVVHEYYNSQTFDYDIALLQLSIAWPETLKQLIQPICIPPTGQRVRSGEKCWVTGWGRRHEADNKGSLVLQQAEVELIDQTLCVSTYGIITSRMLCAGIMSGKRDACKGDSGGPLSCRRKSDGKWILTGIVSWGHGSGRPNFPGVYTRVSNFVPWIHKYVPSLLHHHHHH
From the text: as §1

B1: MWTx-002 anti-TMPRSS6 antibody (antibody, mouse IgG2b, kappa, V domains shown)
VH: EVQLQQSGAELVKPGASVKLSCTASGFNIKDYYIHWVKERTEQGLEWFGRIDPEDGESEYAPKFQGKATLTADTSSNTAYLQLSSLTSEDTAVYYCTRGDSMMVTYFDYWGQGTTLTVSS
VL: DIVMTQSHKFMSTSVGDRVSITCKASQDVSTAVAWYQQKPGQSPKLLIYWAFTRHTGVPDRFTSTGSGTDYALTISSVQAEDLALYYCQQHYRSPWTFGGGTKLEIKR
notes: Mouse monoclonal antibody from a hybridoma (ATCC PTA-126760)
B1: no binding (tested: roughly 1 µg/ml) [1]; no binding (tested: roughly 1 µg/ml) [2].

B2: hzMWTx-001Var anti-TMPRSS6 antibody (antibody, human IgG1, kappa, N297A, V domains shown)
VH: EVQLVQSGAEVKKPGASVKVSCKASGYTFTSYWITWVRQAPGQRLEWIGNIYPGSGSTYYNEKFKSKATITRDTSSRTAYMELSSLRSEDTAVYYCAPYDADYAMDYWGQGTLVTVSS
VL: DIQMTQSPSSLSASVGDRVTITCKASQDISNYLSWFQQKPGKAPKLLIYRANRLVEGVPSRFSGSGSGTDFTLTISSLQPEDFATYFCLQYDEFPLTFGGGTKVEIKR
notes: Humanized variant of MWTx-001, human IgG1/kappa
B2: no binding (tested: roughly 1 µg/ml) [1]; no binding (tested: roughly 1 µg/ml) [2].

B3: hzMWTx-002Var anti-TMPRSS6 antibody (antibody, human IgG1, kappa, N297A, V domains shown)
VH: EVQLVQSGAEVKKPGASVKVSCKASGFNIKDYYIHWVRQATGQGLEWMGRIDPEDAESEYAPKFQGRVTITADTSTDTAYMELSSLRSEDTAVYYCTRGDSMMVTYFDYWGQGTLVTVSS
VL: DIQMTQSPSSLSASVGDRVTITCKASQDVSTAVAWYQQKPGKAPKLLIYWAFTRHTGVPSRFSGSGSGTDYALTISSLQPEDFATYYCQQHYRSPWTFGGGTKVEIKR
notes: Humanized variant of MWTx-002, human IgG1/kappa
B3: no binding (tested: roughly 1 µg/ml) [1]; no binding (tested: roughly 1 µg/ml) [2].

B4: MWTx-003 anti-TMPRSS6 antibody (antibody, mouse IgG2b, kappa, V domains shown)
VH: EVQLQQSGAELVKPGASVKLSCTASGFNIEDYYIHWVKERTEQGLEWIGRIDPEDGETTYAPQFQGKATIIPDTSSNTAYMQLSSLTSEDAAVYYCARSIYLDPMDYWGQGTSVTVSS
VL: DIVMTQSHKFMSTSVGDRVSITCKASQDVTTAVAWYQQKPGQSPKILIYWATTRHTGVPDRFTGSISGTTYILTISSVQAEDLALYYCQQHYSTPYTFGGGTKLEIKR
notes: Mouse monoclonal antibody from a hybridoma (ATCC PTA-126761); also called r4K12B (recombinantly expressed version, same HC and LC)
B4: no binding (tested: roughly 1 µg/ml) [1]; no binding (tested: roughly 1 µg/ml) [2].

B5: hzMWTx-003Var anti-TMPRSS6 antibody (antibody, human IgG1, kappa, L234A L235A, V domains shown)
VH: QVQLVQSGAEVKKPGASVKVSCKASGFNIEDYYMHWVRQAPGQRLEWMGRIDPEDAETTYSPKFQGRVTIIPDTSANTAYMELSSLRSEDTAVYYCARSIYLDPMDYWGQGTLVTVSS
VL: DIQMTQSPKSLSASVGDRVTITCRASQDVTTALAWYQQKPGQSPKLLIYWATTRHSGVPSRFSGSGSGTDFTLTISSLQPEDFATYYCQQHYSTPYTFGQGTKLEIKR
notes: Humanized variant of MWTx-003, human IgG1/kappa
B5: no binding (tested: roughly 1 µg/ml) [1]; no binding (tested: roughly 1 µg/ml) [2].

B6: MWTx-001 anti-TMPRSS6 antibody (antibody, mouse IgG2a, kappa, V domains shown)
VH: QVQLQQPGAELAKPGASVKMSCKASGYTFTSYWITWVKQRPGQDLEWIGNIYPGSGSTYYNEKFKSKATLTVDTSSRTAYMQLSSLTSADSAVYYCAPYDSDYAMDYWGQGTSVTVSS
VL: DIKMTQSPSSMYASLGERVTITCKASQDINNYLSWFQQKPGKSPKTLIYRANRLVDGVPSRVSGSGSGQDYSLTISSLEYEDVGIYFCLQYDEFPLTFGAGTKLELKR
notes: Mouse monoclonal antibody from a hybridoma (ATCC PTA-126759)
B6: no binding (tested: roughly 1 µg/ml) [1]; no binding (tested: roughly 1 µg/ml) [2].

From patent US20230295345A1 (published 2023)
